This is an account of results in the domain aggregation screens of Martell et al. (2025).

This series is described as follows: soluble fraction after stress (log2 fold change); higher = more stays soluble; pooled small domains, quantitative proteomics. Conditions: stress: 50 degC. In outline:
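Quantitative proteomics served as the high-throughput read-out for pooled custom libraries of small protein domains. Each was stressed at 50°C. Aggregation propensity is expressed as the base-two log fold change in soluble protein after stress. A higher value means a larger share of the protein remains in solution.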
Turning to “HMVIREVNDNPVSAEELRLGDRVKVLSLGQNGEIVTLPDEKGELTVQVGILKAKVNLDDIMLI”, the “soluble fraction (log2)” value stood at 0.0226.

“HMRQDEKTLLYWIGAQVKREGKLIKTSTAQYLVEKTGTDMENLEKELEKLFAYTLDEKEITPAAIDEI”: the “soluble fraction (log2)” value was -1.8.

On to “HMIAIGDDARLDDAARFFRIAEDSYAAGDYRKSKENYIEARKLYAELGDHEKVNLINSKISAIDSIT”, for which the “soluble fraction (log2)” value was determined as 0.0633.

Regarding “HMFWVESDVDFVDKTSAHNAIKENERVIGMYISYRLNGTWTTEQYVGIDTSKDNWENPDNWNIL”, the “soluble fraction (log2)” value was -0.308.

“HMIMISKSFEINEDNINKRLDIFLTENLDGLSRGIVQKYISLEQITVNKESSHKDYRLKLDDFIEVKIQAH”: the “soluble fraction (log2)” value is -3.76.

For the sequence “HMAPLVTLEADGNGAVKLSNLAGHSIREVAGALGGAGLSLIPVGSGTSWKQNPAPGTVLHSGDTVTVYF”, the “soluble fraction (log2)” value came to 0.126.

Consider “HMKLPNSFGSIQKLSGNRRKPYRVVKTIGWDENGKQIRKTLGYYETRAKALQELALFNEKPYD”, for which the “soluble fraction (log2)” value was -0.804.

For the sequence “HMWAQSVSLHGLLGRQALLIVDGKPPRAVAPGQTHLGVTVLSTDEDRAVVALAGGQRLTLRVGESPVSVG”, the “soluble fraction (log2)” value was -0.0812.

For the sequence “HMAVWRIKVNYIPGYGVNIWSSYKNGHFTGKRAMHGETYEVLETKKDQDGNTWYKLDDHQWIEGRYAINAK”, the “soluble fraction (log2)” value is -0.466.

With “HMEKFTGELSQEEKNVLDALSHEEMHVDIIIKLTKLETSAVSSTLSLLEIKGLIKNIGGQNYIK”, the “soluble fraction (log2)” value was 0.486.

Turning to “HMFKDVTVPSVINKTEAEATNMLKGLNLVVSVEYEENANKSDGIVTAQNVNANKVIKEGETVTITVNKQP”, the “soluble fraction (log2)” value was 0.00765.

Take “HMKALYNLDYEKPLSGSYYTETTARAAVPTDIRKLGLIITYKTDATTNITEQFVGSSISAWTTSGNWKSLG”: the “soluble fraction (log2)” value was -0.424.

As to “HMIPPGTITIEGAITKVPVFLDGKQIGTVPLTKEDVEPGKYRIRVLGVGRVITIDPGEKENVLFSGEDLGL”, the “soluble fraction (log2)” value is -0.142.

Consider “HMIESLKGILHKKDPTIAIIDVGGVRLSVNITLSTYEKLEEINSSIELLTYFNVREDAMELYG”, for which the “soluble fraction (log2)” value was -0.157.

Take “HMTKIEYTEQEFNDFIQAYKNNRKMFPEDYIVKTQVVFINKGFSKSQADMIIAQIETRLRLQGE”: the “soluble fraction (log2)” value is -0.421.

“HMSDTLPRLLWNFQMAKRLDEMNGAEKRRYQLVLIHPQASEKERDYASSFAHQARMLGIEVAIRDS”: the “soluble fraction (log2)” value was -0.345.

“HMGAGDKQAQQASLMQIIALQKEGMALGLVEPKHLYHSFSKMIENAGFKDVQSFAVDPSTQQ”: the “soluble fraction (log2)” value is -0.0552.

In the case of “HMFYLPEPLTEQELRILGMLLDGRSNPEIAAELFIAVGTAKWHVHNILQKLGVANRAQAIVKAHELGLT”, the “soluble fraction (log2)” value is -1.91.

In the case of “HMVQPSAAVRAHPVGAFVEQRQGLSDDQILALQKKWNEGIYARIQGTRWFLFSKDTPAVTSLLLVPDLP”, the “soluble fraction (log2)” value is -0.555.

Regarding “HMDLPATVPNLEGLTEVTARNKLTVAGLSLGEVKEVESDKEKGTVVGQSIAYGKRVTKGTKVDIEISSGK”, the “soluble fraction (log2)” value is 0.0361.

In the case of “HMEKVLPFEFERKFKTNHTAWDFFSNQAPPSYRKTVIHWILSAKQEITRISRLEKLIAASEQQKRI”, the “soluble fraction (log2)” value was -0.319.

On to “HMPDLSYVDEVLNRYKGHKGTLITVLQQVQAHKGYLEKEALERVARSMGVPTARIYGVVTFYAQFR”, for which the “soluble fraction (log2)” value was 0.0318.

“HMLKQLGRQEGRQEGAVDALRTVLALQIEQRFGPLDPTVQALIVAADIDALQRALSRVAVVSDLGAVFPP”: the “soluble fraction (log2)” value is -0.238.

“HMNSNKFANAAAVAVAEKPADSYNPLFIYGPSGVGKTHLLYAIANEIHKHHPDYNIVYIKGDQFTNELIN”: the “soluble fraction (log2)” value was -0.0439.

Turning to “HMTSPKSRIVSALLASPSRPEELAMRLGEDILTLMRTLTDFEASGIIQRLPDGRYTPTREYHLGLVDK”, the “soluble fraction (log2)” value came to 0.0852.

“HMSVFTPLTRSELETFLAPYELGRLLDFQGIAAGSENTNYFISLEKGEYVLTLVERGPVAEMPFFIELLD”: the “soluble fraction (log2)” value was -0.982.

As for “HMGLTYEQILTDVQRFVTQNHADTLSNEGNPEEARKLLKDYILQYVQNRSYHVDGQTTEELVDSLYED”, the “soluble fraction (log2)” value is -0.195.

With “HMGQKETIVDLLKTNGTMTQLALAEAIYGDKNHGPNIYSVLMGRVNSGAVLRTGSQPAYYSLSG”, the “soluble fraction (log2)” value came out at 0.0821.

Turning to “HMEILPAYRDIKKEALLGNINAEFKYVNLLLEHNYIEQAFNIIEDMKTRVDDNPEFEELKSRVADAYLMY”, the “soluble fraction (log2)” value is -1.38.

Regarding “HMRAVPTKLAPFVEVLKAMLEADGHRPKAQRRTAKALHLELISRGYAGGYTRLTDYIRDWRQQQG”, the “soluble fraction (log2)” value is -2.34.

With “HMDSNPLSEREQEVLQLVAKGASNQTIAEQLFLSNGTIRNYMTAIFNKLNANNRTDAVRIARENGW”, the “soluble fraction (log2)” value was -0.144.

On to “HMQSKSEINELPKSIHMAFSPKNFELFIDNLKINEIDFSNWKGELNTIQERVDGQRQIWIQDPQGYWIEIN”, for which the “soluble fraction (log2)” value is -0.018.

For the sequence “HMSDDVELLGRLSDREVSVLQYLSQGYSNKQISEQMFISNKTVSTYKARLLLKLNAGSLVDLIEFAKRNTL”, the “soluble fraction (log2)” value is -1.4.

For the sequence “HMDLTKLFDHDSEYGKSYVFGKITDEMIARAEQTLGYRMPASYIELLKVQNGGMISDELDESWLTTIYGIG”, the “soluble fraction (log2)” value is -0.24.

As to “HMDGDVAVKGGDGVLEVRLANAANVRVYNLAGRLMADYTGTELHMPLPKGVYMVVAGDNRTKVVV”, the “soluble fraction (log2)” value was found to be 0.074.

With “HMNMSVGAALRRRRNELGMTLRELADEAELTSGFLSQVENDRVSPSLKSLGRIAEVLRIPLFQLLS”, the “soluble fraction (log2)” value is -1.29.

Regarding “HMDDNMNEQWKMILNSIAKKGSVTRQETEKILGIGQTRAHVLLKAMIHAGMIKAVGDGKKRRYVR”, the “soluble fraction (log2)” value is -1.01.

Take “HMGNGDTNERIATLMQILAKQESIINQYGLENPVVSPQMYVRTLKKVVELSGFKDASSYFADIPDGWKA”: the “soluble fraction (log2)” value was -0.00533.

Turning to “HMNKVDEEKNAELVSTIQNKFSDVSAATKKKVKAFMAEHDIPNFKNADEIPTANLEAIVAMLNED”, the “soluble fraction (log2)” value worked out at 0.229.

With “HMEQKELAPLVPQEDGSVKLTNLAGYSMREVAAALEGGNLSLIPIGSGTSWKQDPAPGTVLQPGNTVTVYF”, the “soluble fraction (log2)” value amounted to 0.00354.

As for “HMFQTAADVAYRIISQKILDGEFPPGMKLSRRKMAEVTSVSVIPVIEALKKLEEDGLVESKPQWGSFVTI”, the “soluble fraction (log2)” value was -1.27.

In the case of “HMYSNDEIVNYLKNYIFDNFNLNELSDEELEEKIAELVQQQFAGQLLSLDEKVKLVNQVYSSIR”, the “soluble fraction (log2)” value is 0.0129.

Take “HMSESIFTLYGDEKFEKIRYYLKERGFITLDALARFDFDELLFVPGVSELLISEAKQLFSRYDTSSLAAKE”: the “soluble fraction (log2)” value was -0.17.

“HMDLHERISSVLLGTGKSNDELAQILGVNKNTISAYKNKHGDLKGIVLEGIVKHFDINPVWLLTGSGTR”: the “soluble fraction (log2)” value is -0.54.

“HMNTIFSVNGPVVKVKDTKDFSMMEMVYVGEKKLIGEVIGITESFTTIQVYEVTTGLKVGEPVYTTGAPM”: the “soluble fraction (log2)” value was -0.38.

“HMGIAEAKRVIVRTLHDVLGPEADFLTEKIDVAQTAAELRVHAEKYRDMLVDMGKPKKSAAFWEAFEAALP”: the “soluble fraction (log2)” value was -0.0544.

On to “HMELSAEGWVDGTGVRMRASASTDSEVVRVTEDGESLDITGVSGTWYRVTAGGVSGYIRSDYVSLEEP”, for which the “soluble fraction (log2)” value is -0.287.

Turning to “HMTTIAQNISNYRTRANMTQQQVADKLSVSHHTVSKWELGINTPSVEDMQKLAQVFGVTITELVVD”, the “soluble fraction (log2)” value was -0.239.

In the case of “HMLSDSDTLRDLYLSEQIWNVGDLIRVKGKNDDTHPSWEIIRRGTNYITAIDENYKSHKVWLHDIDI”, the “soluble fraction (log2)” value was -1.17.

As to “HMSESAGKAFDLLFYLAKAGETVSLARLSRETGMNKATALRYLNVLESKGVVERSKLGWTLGLSLFELGSK”, the “soluble fraction (log2)” value is -2.05.
